Test results taken from PMC4379015, “Chemical and Thermal Unfolding of a Global Staphylococcal Virulence Regulator with a Flexible C-Terminal End” (PLoS ONE, 2015).

B1: rSarA (a C-terminally histidine-tagged SarA) (natural protein)
chain: MAITKINDCFELLSMVTYADKLKSLIKKEFSISFEEFAVLTYISENKEKEYYLKDIINHLNYKQPQVVKAVKILSQEDYFDKKRNEHDERTVLILVNAQQRKKIESLLSRVNKRITEANNEIEL
notes: the cloning attached eight additional residues at the C-terminal end of SarA; Leu 125 and Glu 126 of rSarA lie in the tag; also called recombinant SarA; not shown: His6 (eight additional residues including six histidine residues), C-terminal, kept

Assays:
[1] = system: rSarA (Staphylococcus aureus strain Newman); assay: EMSA; details: Gel shift buffer not stated (performed as reported earlier); rSarA kept in buffer A: 20 mM phosphate pH 8.0, 100 mM NaCl, 5% glycerol; binding temperature not …
[2] = target: the molecule itself; assay: SEC; analytical gel filtration of rSarA (20 uM) without denaturant; apparent mass from the elution volumes of monomeric marker proteins

Molecule	K half [1]	stoichiometry N [2]
hla DNA	286 nM	–
B1	–	2
